T1: FcγRIIb extracellular domain with C-terminal His tag (human, UniProt P31994 43-217)
T1 construct: extracellular domain; also called FcgRIIb; FcγRIIb extracellular region; not shown: His tag at the C terminus
T1 sequence (looked up): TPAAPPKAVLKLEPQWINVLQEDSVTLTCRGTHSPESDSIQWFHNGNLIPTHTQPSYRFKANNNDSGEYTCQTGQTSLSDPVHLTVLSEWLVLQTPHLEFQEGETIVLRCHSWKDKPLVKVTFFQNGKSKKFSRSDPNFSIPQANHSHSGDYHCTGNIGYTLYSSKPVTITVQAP

T2: FcγRIIa type R extracellular domain with C-terminal His tag (human, UniProt P12318 34-217)
T2 chain: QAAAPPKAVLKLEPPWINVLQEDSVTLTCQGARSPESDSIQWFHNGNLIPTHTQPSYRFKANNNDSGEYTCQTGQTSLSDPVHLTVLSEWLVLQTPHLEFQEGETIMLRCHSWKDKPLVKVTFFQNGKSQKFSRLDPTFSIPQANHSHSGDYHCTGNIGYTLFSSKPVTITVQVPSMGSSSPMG

T3: FcγRIIb extracellular domain, C-terminal His tag (human, UniProt P31994 43-217)
T3 construct: extracellular domain; also called FcgRIIb; CD32B; not shown: His tag at the C terminus
T3 sequence (looked up): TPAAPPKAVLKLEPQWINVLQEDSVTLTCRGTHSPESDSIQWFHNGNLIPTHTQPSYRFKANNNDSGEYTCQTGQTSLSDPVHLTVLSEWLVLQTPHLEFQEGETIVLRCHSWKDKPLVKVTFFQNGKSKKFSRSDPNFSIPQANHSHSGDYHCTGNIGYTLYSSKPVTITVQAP

T4: FcγRIIa type R extracellular domain, C-terminal His tag (human, UniProt P12318 34-217)
T4 construct: extracellular domain; also called FcgRIIaR; FcγRIIaR; not shown: His tag at the C terminus
T4 sequence (looked up): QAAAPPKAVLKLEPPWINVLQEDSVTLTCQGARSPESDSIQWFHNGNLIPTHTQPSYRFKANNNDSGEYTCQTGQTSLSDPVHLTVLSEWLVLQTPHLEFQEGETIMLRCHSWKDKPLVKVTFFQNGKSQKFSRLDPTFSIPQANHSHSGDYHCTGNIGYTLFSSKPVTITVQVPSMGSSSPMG


Tests used:
[1] = molecular target: T1, FcγRIIb extracellular domain with …; test: SPR (Biacore): antibody captured on the chip, FcγRIIb as analyte; amount bound per amount captured, relative to GpH7-B3/GpL16-k0 = 100
[2] = molecular target: T2, FcγRIIa type R extracellular domain …; test: SPR (Biacore), antibody captured, FcγR analyte
Excerpt: (§1) Furthermore, KD(IIaR)/KD(IIb) and KD(IIaH)/KD(IIb) in the table respectively show the value obtained by dividing the KD value of each variant for FcγRIIaR by the KD value of each variant for FcγRIIb, and the value obtained by dividing the KD value of each variant for FcγRIIaH by the KD value of each variant for FcγRIIb. KD(IIb) of the parent polypeptide/KD(IIb) of the altered polypeptide refers to a value obtained by dividing the KD value of the parent polypeptide for FcγRIIb by the KD value of each variant for FcγRIIb.
(§2) Kinetic analyses for calculating the KD values of each altered antibody for FcγR were performed according to the following method. First, antibodies of interest were captured onto the above-mentioned sensor chips, and an Fcγ receptor diluted with the running buffer was allowed to interact. The Biacore Evaluation Software was used to globally fit the measured results to the obtained sensorgram using the 1:1 Langmuir binding model, and the association rate constant ka (L/mol/s) and the dissociation rate constant kd (1/s) were calculated; and from those values the dissociation constants KD (mol/L) were calculated.

[3] = molecular target: T1, FcγRIIb extracellular domain with …; test: SPR (Biacore), antibody captured, FcγR analyte
Excerpt: as §1, §2

[4] = molecular target: T5, FcγRIIIa type V extracellular domain with C-terminal His tag (human, UniProt P08637 17-208); test: SPR (Biacore), antibody captured, FcγR analyte
T5 construct: extracellular domain; also called FcγRIIIaV; FcgRIIIaV; not shown: His tag at the C terminus
T5 sequence (P08637 17-208 F176V): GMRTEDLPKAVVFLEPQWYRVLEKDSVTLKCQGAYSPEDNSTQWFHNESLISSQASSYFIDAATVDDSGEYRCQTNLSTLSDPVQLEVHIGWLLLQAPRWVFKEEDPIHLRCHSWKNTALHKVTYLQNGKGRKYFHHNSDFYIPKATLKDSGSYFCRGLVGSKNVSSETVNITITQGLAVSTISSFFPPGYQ
Excerpt: as §1, §2

[5] = molecular target: T3, FcγRIIb extracellular domain, …; test: SPR (Biacore), antibody captured, FcγR as analyte
Excerpt: as §1, with “respectively represent” for “respectively show”, “to the” for “to a”
as §2

[6] = molecular target: T4, FcγRIIa type R extracellular domain, …; test: SPR (Biacore), antibody captured, FcγR as analyte
Excerpt: as §1, with “respectively represent” for “respectively show”, “to the” for “to a”
as §2

Binder	binding result [1]	Kd [5] [µM]	also measured
G237A (antibody, human IgG1, kappa, Named on the sheet only by its alteration; also called B3 variant of GpH7-B3/GpL16-k0 with G237A (no P238D)) heavy chain: not shown light chain: DIVMTQSPLSLPVTPGEPASISCQASESLVHSNRNTYLHWYLQKPGQSPQLLIYKVSNRFSGVPDRFSGSGSGTDFTLKISRVEAEDVGVYYCSQNTHVPPTFGQGTKVEIERTVAAPSVFIFPPSDEQLKSGTASVVCLLNNFYPREAKVQWKVDNALQSGNSQESVTEQDSKDSTYSLSSTLTLSKADYEKHKVYACEVTHQGLSSPVTKSFNRGEC	binds		
G237D (antibody, human IgG1, kappa, Named on the sheet only by its alteration; also called B3 variant of GpH7-B3/GpL16-k0 with G237D (no P238D)) heavy chain: not shown light chain: DIVMTQSPLSLPVTPGEPASISCQASESLVHSNRNTYLHWYLQKPGQSPQLLIYKVSNRFSGVPDRFSGSGSGTDFTLKISRVEAEDVGVYYCSQNTHVPPTFGQGTKVEIERTVAAPSVFIFPPSDEQLKSGTASVVCLLNNFYPREAKVQWKVDNALQSGNSQESVTEQDSKDSTYSLSSTLTLSKADYEKHKVYACEVTHQGLSSPVTKSFNRGEC	binds		
G237E (antibody, human IgG1, kappa, Named on the sheet only by its alteration; also called B3 variant of GpH7-B3/GpL16-k0 with G237E (no P238D)) heavy chain: not shown light chain: DIVMTQSPLSLPVTPGEPASISCQASESLVHSNRNTYLHWYLQKPGQSPQLLIYKVSNRFSGVPDRFSGSGSGTDFTLKISRVEAEDVGVYYCSQNTHVPPTFGQGTKVEIERTVAAPSVFIFPPSDEQLKSGTASVVCLLNNFYPREAKVQWKVDNALQSGNSQESVTEQDSKDSTYSLSSTLTLSKADYEKHKVYACEVTHQGLSSPVTKSFNRGEC	binds		
G237L (antibody, human IgG1, kappa, Named on the sheet only by its alteration; also called B3 variant of GpH7-B3/GpL16-k0 with G237L (no P238D)) heavy chain: not shown light chain: DIVMTQSPLSLPVTPGEPASISCQASESLVHSNRNTYLHWYLQKPGQSPQLLIYKVSNRFSGVPDRFSGSGSGTDFTLKISRVEAEDVGVYYCSQNTHVPPTFGQGTKVEIERTVAAPSVFIFPPSDEQLKSGTASVVCLLNNFYPREAKVQWKVDNALQSGNSQESVTEQDSKDSTYSLSSTLTLSKADYEKHKVYACEVTHQGLSSPVTKSFNRGEC	binds		
G237M (antibody, human IgG1, kappa, Named on the sheet only by its alteration; also called B3 variant of GpH7-B3/GpL16-k0 with G237M (no P238D)) heavy chain: not shown light chain: DIVMTQSPLSLPVTPGEPASISCQASESLVHSNRNTYLHWYLQKPGQSPQLLIYKVSNRFSGVPDRFSGSGSGTDFTLKISRVEAEDVGVYYCSQNTHVPPTFGQGTKVEIERTVAAPSVFIFPPSDEQLKSGTASVVCLLNNFYPREAKVQWKVDNALQSGNSQESVTEQDSKDSTYSLSSTLTLSKADYEKHKVYACEVTHQGLSSPVTKSFNRGEC	binds		
G237Y (antibody, human IgG1, kappa, Named on the sheet only by its alteration; also called B3 variant of GpH7-B3/GpL16-k0 with G237Y (no P238D)) heavy chain: not shown light chain: DIVMTQSPLSLPVTPGEPASISCQASESLVHSNRNTYLHWYLQKPGQSPQLLIYKVSNRFSGVPDRFSGSGSGTDFTLKISRVEAEDVGVYYCSQNTHVPPTFGQGTKVEIERTVAAPSVFIFPPSDEQLKSGTASVVCLLNNFYPREAKVQWKVDNALQSGNSQESVTEQDSKDSTYSLSSTLTLSKADYEKHKVYACEVTHQGLSSPVTKSFNRGEC	binds		
L234W (antibody, human IgG1, kappa, Named on the sheet only by its alteration; also called B3 variant of GpH7-B3/GpL16-k0 with L234W (no P238D)) heavy chain: not shown light chain: DIVMTQSPLSLPVTPGEPASISCQASESLVHSNRNTYLHWYLQKPGQSPQLLIYKVSNRFSGVPDRFSGSGSGTDFTLKISRVEAEDVGVYYCSQNTHVPPTFGQGTKVEIERTVAAPSVFIFPPSDEQLKSGTASVVCLLNNFYPREAKVQWKVDNALQSGNSQESVTEQDSKDSTYSLSSTLTLSKADYEKHKVYACEVTHQGLSSPVTKSFNRGEC	binds		
IL6R-PD042/IL6R-L (antibody, human IgG1, kappa, IL6R-F11 with P238D/L234W; copies: 2 + 2) heavy: QVQLQESGPGLVKPSETLSLTCAVSGHSISHDHAWSWVRQPPGEGLEWIGFISYSGITNYNPSLQGRVTISRDNSKNTLYLQMNSLRAEDTAVYYCARSLARTTAMDYWGEGTLVTVSSASTKGPSVFPLAPSSKSTSGGTAALGCLVKDYFPEPVTVSWNSGALTSGVHTFPAVLQSSGLYSLSSVVTVPSSSLGTQTYICNVNHKPSNTKVDKKVEPKSCDKTHTCPPCPAPEWLGGDSVFLFPPKPKDTLYISRTPEVTCVVVDVSHEDPEVKFNWYVDGVEVHNAKTKPREEQYNSTYRVVSVLTVLHQDWLNGKEYKCKVSNKALPAPIEKTISKAKGQPREPQVYTLPPSRDELTKNQVSLTCLVKGFYPSDIAVEWESNGQPENNYKTTPPVLDSDGSFFLYSKLTVDKSRWQQGNVFSCSVMHEALHYHYTQKSLSLSP light: not shown			Kd [2]: 16 µM; Kd [3]: 2 µM; Kd [4]: 37 µM
IL6R-BP102/IL6R-L (antibody, human IgG1, kappa, IgG1; P238D/S267Q (EU numbering) introduced into IL6R-B3) heavy: QVQLQESGPGLVKPSETLSLTCAVSGHSISHDHAWSWVRQPPGEGLEWIGFISYSGITNYNPSLQGRVTISRDNSKNTLYLQMNSLRAEDTAVYYCARSLARTTAMDYWGEGTLVTVSSASTKGPSVFPLAPSSKSTSGGTAALGCLVKDYFPEPVTVSWNSGALTSGVHTFPAVLQSSGLYSLSSVVTVPSSSLGTQTYICNVNHKPSNTKVDKKVEPKSCDKTHTCPPCPAPELLGGDSVFLFPPKPKDTLMISRTPEVTCVVVDVQHEDPEVKFNWYVDGVEVHNAKTKPREEQYNSTYRVVSVLTVLHQDWLNGKEYKCKVSNKALPAPIEKTISKAKGQPREPQVYTLPPSRDELTKNQVSLTCLVKGFYPSDIAVEWESNGQPENNYKTTPPVLDSDGSFFLYSKLTVDKSRWQQGNVFSCSVMHEALHNHYTQESLSLSP light: not shown		0.9	Kd [6]: 8.4 µM
IL6R-BP117/IL6R-L (antibody, human IgG1, kappa, IgG1; P238D/K326D (EU numbering) introduced into IL6R-B3) heavy: QVQLQESGPGLVKPSETLSLTCAVSGHSISHDHAWSWVRQPPGEGLEWIGFISYSGITNYNPSLQGRVTISRDNSKNTLYLQMNSLRAEDTAVYYCARSLARTTAMDYWGEGTLVTVSSASTKGPSVFPLAPSSKSTSGGTAALGCLVKDYFPEPVTVSWNSGALTSGVHTFPAVLQSSGLYSLSSVVTVPSSSLGTQTYICNVNHKPSNTKVDKKVEPKSCDKTHTCPPCPAPELLGGDSVFLFPPKPKDTLMISRTPEVTCVVVDVSHEDPEVKFNWYVDGVEVHNAKTKPREEQYNSTYRVVSVLTVLHQDWLNGKEYKCKVSNDALPAPIEKTISKAKGQPREPQVYTLPPSRDELTKNQVSLTCLVKGFYPSDIAVEWESNGQPENNYKTTPPVLDSDGSFFLYSKLTVDKSRWQQGNVFSCSVMHEALHNHYTQESLSLSP light: not shown		0.8	Kd [6]: 9.2 µM
IL6R-BP120/IL6R-L (antibody, human IgG1, kappa, IgG1; P238D/K326E (EU numbering) introduced into IL6R-B3) heavy: QVQLQESGPGLVKPSETLSLTCAVSGHSISHDHAWSWVRQPPGEGLEWIGFISYSGITNYNPSLQGRVTISRDNSKNTLYLQMNSLRAEDTAVYYCARSLARTTAMDYWGEGTLVTVSSASTKGPSVFPLAPSSKSTSGGTAALGCLVKDYFPEPVTVSWNSGALTSGVHTFPAVLQSSGLYSLSSVVTVPSSSLGTQTYICNVNHKPSNTKVDKKVEPKSCDKTHTCPPCPAPELLGGDSVFLFPPKPKDTLMISRTPEVTCVVVDVSHEDPEVKFNWYVDGVEVHNAKTKPREEQYNSTYRVVSVLTVLHQDWLNGKEYKCKVSNEALPAPIEKTISKAKGQPREPQVYTLPPSRDELTKNQVSLTCLVKGFYPSDIAVEWESNGQPENNYKTTPPVLDSDGSFFLYSKLTVDKSRWQQGNVFSCSVMHEALHNHYTQESLSLSP light: not shown		1	Kd [6]: 9.6 µM
IL6R-BP136/IL6R-L (antibody, human IgG1, kappa, IgG1; P238D/K326A (EU numbering) introduced into IL6R-B3) heavy: QVQLQESGPGLVKPSETLSLTCAVSGHSISHDHAWSWVRQPPGEGLEWIGFISYSGITNYNPSLQGRVTISRDNSKNTLYLQMNSLRAEDTAVYYCARSLARTTAMDYWGEGTLVTVSSASTKGPSVFPLAPSSKSTSGGTAALGCLVKDYFPEPVTVSWNSGALTSGVHTFPAVLQSSGLYSLSSVVTVPSSSLGTQTYICNVNHKPSNTKVDKKVEPKSCDKTHTCPPCPAPELLGGDSVFLFPPKPKDTLMISRTPEVTCVVVDVSHEDPEVKFNWYVDGVEVHNAKTKPREEQYNSTYRVVSVLTVLHQDWLNGKEYKCKVSNAALPAPIEKTISKAKGQPREPQVYTLPPSRDELTKNQVSLTCLVKGFYPSDIAVEWESNGQPENNYKTTPPVLDSDGSFFLYSKLTVDKSRWQQGNVFSCSVMHEALHNHYTQESLSLSP light: not shown		0.8	

Source: US20140093496A1 (Chugai, published 2014)
